± gives the standard deviation.
Assay: protein stability index of a GFP-peptide fusion (GPS, HEK-293T) (PSI 1-6); higher = more stable
Details: c terminus: a fixed tail appended
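Note: 24-mer peptide tiles fused after GFP, lentivirally expressed, FACS-sorted into six equal bins by GFP/DsRed ratio, decoded by Illumina sequencing, PSI is the read-weighted mean bin number.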

Sequence | protein stability index (treatment: DMSO) | protein stability index (treatment: MLN4924 1 uM, 8 h)
MQERVQRLEAARLSLEEELSRVKA [LRRC45] | 4.25 ± 0.5 | 4.48 ± 0.27
TIVTDVFQGSMRIFTKKLPHPDLP [USP39] | 2.31 ± 0.099 | 2.38 ± 0.29
ILFYCHFPDLLLTKRDSFLKRLYR [ALG2] | 2.81 ± 0.6 | 2.18 ± 0.51
PDANTWTALPPMNEARHNFGIVEI [GAN] | 2.42 ± 0.34 | 2.51 ± 0.43
AEKRKRQAEIENKRRQLEDERRQL [PALM] | 4.68 ± 0.5 | 4.94 ± 0.32
GDSASEEKSGSAEPFVLPASSVES [FBXO34] | 5.39 ± 0.33 | 5.42 ± 0.42
RRVGILGEELADVGGVLRGLNHSL [SCARA5] | 2.9 ± 0.095 | 2.94 ± 0.3
EECRMSGEFPSPVSISIISSTSGG [KRT71] | 3.59 ± 0.25 | 3.6 ± 0.4
QRHPRLRPQSAQSSFPPSPGPSPD [AUP1] | 4.76 ± 0.21 | 4.97 ± 0.18
QQDFLGLPEELRRLSGLSSVGHNW [C22orf15] | 2.96 ± 0.21 | 3.11 ± 0.14
DGNKDVYLSLLRMYLSPPSIHCLG [VPS39] | 2.94 ± 0.57 | 2.72 ± 0.33
CHQMGVVHRDLKPENLLLASKCKG [CAMK2B] | 3.7 ± 0.16 | 3.84 ± 0.39
LGLLDDYLEVAKHFKPHGFSSDKA [ATF4] | 2.89 ± 0.19 | 3.07 ± 0.91
AEHWTKEHCGAVCFVKDNPQKSYF [WAS] | 2.92 ± 0.39 | 2.98 ± 0.23
QRSPLGGDVLHAHLDIWKSAAWMK [SPDEF] | 2.61 ± 0.37 | 2.58 ± 0.45
MDRSLVQDAPLSDCTETIEGLELT [ADD1] | 5.27 ± 0.28 | 5.32 ± 0.19
ATHILVRQQGNPGHRSIYLALKLP [ADAMTS4] | 2.92 ± 0.62 | 2.1 ± 0.35
QLVKKLNDSDHQSSTSPLMEGTPT [VPS39] | 4.87 ± 0.22 | 4.9 ± 0.09

Sequence | protein stability index (treatment: DMSO) | protein stability index (treatment: MLN4924 1 uM, 8 h)
ALLADEERCLSCILAQQPDRLRDE [TRADD] | 4.28 ± 0.2 | 4.3 ± 0.12
FNEQTWEVSQQDPSHGEVGEHKDR [ZSCAN9] | 5.38 ± 0.26 | 5.35 ± 0.17
LKKLAEENPDLQEAYIAKQKRLKS [GDAP1] | 4.38 ± 0.22 | 4.6 ± 0.28
VMSIPDVIRLKQEQHVHNEKSVLK [PRKX] | 4.18 ± 0.15 | 4.25 ± 0.12
ASGLTGFIGLEVVAQLFNCMVGLL [ATL3] | 2.26 ± 0.16 | 2.15 ± 0.1
SLEKLLASEPLPWDLRFRIIHETA [RIPK4] | 2.18 ± 0.33 | 2.31 ± 0.33
PVRAYDFLLKFLLVGDSDVGKGEI [RAB40B] | 2.28 ± 0.3 | 2.62 ± 0.58
EDHIAHIIELLGSIPRHFALSGKY [SRPK2] | 2.71 ± 0.4 | 2.63 ± 0.58
ILENTSKVPAPKDVLAHQVPNAKK [NOP53] | 4.23 ± 0.27 | 4.43 ± 0.16
PGRPRTDGENVFTGQSKIYSYMSP [KMT5A] | 3.4 ± 0.39 | 3.58 ± 0.23
KEQLSNDRETQEGKPPTAHLDRTS [ELOA2] | 5.56 ± 0.32 | 5.59 ± 0.16
EIIELRRTVNALEIELQAQHNLRD [KRT34] | 2.89 ± 0.36 | 3.03 ± 0.22
YETKYVVLSYLGLLSQEKLQEQHL [BCL2L13] | 2.63 ± 0.49 | 2.62 ± 0.46
YEEEFDYETESETESEIESETDFE [GNAS] | 5.12 ± 0.24 | 5.11 ± 0.16
GKPLYLIFRNLCQMQEDNSSFSLL [INTS3] | 2.37 ± 0.41 | 2.28 ± 0.38
SVPFSFDPNTAAGWLSVSDDLTSV [TRIM35] | 3.42 ± 0.25 | 3.52 ± 0.23
DGLKRRQQLEEELLRAKIEVEKLK [RAD54B] | 4.67 ± 0.31 | 4.85 ± 0.32
AEEESSGGEEEDEDENIEVVYSKA [EIF5] | 5.22 ± 0.17 | 5.25 ± 0.16
